Consider 2 substances from patent US20110206727A1.

The experiment has as its target OmpC porin purified from Salmonella typhi (Salmonella enterica subsp. enterica serovar Typhi). Description: phage display panning on OmpC; frequency among 8 sequenced binding phage.

On to OmpC affinity peptide SLSLIQT, for which the Frequency (fraction of sequenced phage clones) is 0.125.

As for OmpC affinity peptide TATYLLD, the Frequency (fraction of sequenced phage clones) worked out at 0.125.
